Experimental data published in patent publication US20230398218A1 (published 2023).
Like-named read-outs stand apart in the source and are kept apart here. Values belong to the binder of their own block, whether it stands above or below them.

Tests used:
HLA-A24.02 [1] = target: HLA-A24.02 (human); assay: pMHC-I complex dissociation at 37 C, radiolabeled b2m
HLA-A24.02 [2] = target: HLA-A24.02 (human); assay: competition with radiolabeled reference peptide on prepared MHC class I
HLA-B08.01 [3] = target: HLA-B08.01 (human); assay: pMHC-I complex dissociation at 37 C, radiolabeled b2m
HLA-A03.01 [4] = target: HLA-A03.01 (human); assay: as above
HLA-A01.01 [5] = target: T1, HLA-A01.01 (human); assay: as above
T1 construct: in the stability assay the heavy chain is biotinylated and b2m iodine-labeled

HLA-A11.01 = HLA-A11.01 (human); assay: competition with radiolabeled reference peptide on prepared MHC class I
HLA-A03.01 [6] = target: HLA-A03.01 (human); assay: as above
HLA-A01.01 [7] = target: T1, HLA-A01.01; assay: as above
HLA-A02.01 [8] = target: HLA-A02.01 (human); assay: pMHC-I complex dissociation at 37 C, radiolabeled b2m
HLA-A02.01 [9] = target: HLA-A02.01 (human); assay: competition with radiolabeled reference peptide on prepared MHC class I
[10] = target: T2, HLA-A*03:01 expressed in 293T or SW620 cells (human); assay: targeted MS/MS (PRM) of peptides eluted from HLA-peptide complexes, 293T cells
T2 construct: whole, on cells; HLA of cells from which peptides were eluted for MS/MS
Procedure: To assess whether antigens could be processed and presented from the larger polypeptide context, peptides eluted from HLA molecules isolated from cells expressing the genes of interest were analyzed by tandem mass spectrometry (MS/MS).
For analysis of presentation of RAS neoantigens, cell lines were utilized that have RAS mutations naturally or were lentivirally transduced to express the mutated RAS gene. HLA molecules were either isolated based on the natural expression of the cell lines or the cell lines were lentivirally transduced or transiently transfected to express the HLA of interest. […] Eluted peptides were then analyzed by targeted MS/MS with parallel reaction monitoring (PRM).

HLA-B08.01 [11] = target: HLA-B08.01 (human); assay: pMHC-I complex dissociation at 37 C, radiolabeled b2m; remark: listed apart in the source
HLA-B08.01 [12] = target: HLA-B08.01 (human); assay: competition with radiolabeled reference peptide on prepared MHC class I

- Stability (half-life (hr.)) (HLA-A24.02 [1]): 343 min
- Affinity (HLA-A24.02 [2]): 4.96 nM
Binder: EYMANGSLL (also called BTK, C481S peptide)

- Stability (half-life (hr.)) (HLA-B08.01 [3]): 0 h
Binder: MQLMPFGCL

- Stability (half-life (hr.)) (HLA-A03.01 [4]): 14.3 min
- Stability (half-life (hr.)) (HLA-A01.01 [5]): 13 min
- Affinity (HLA-A11.01): 536 nM
- Affinity (HLA-A03.01 [6]): 35.6 nM
- Affinity (HLA-A01.01 [7]): 439 nM
Binder: MANGSLLNY (also called BTK, C481S peptide)

- Stability (half-life (hr.)) (HLA-A02.01 [8]): 22.9 min
- Affinity (HLA-A02.01 [9]): 132 nM
Binder: LIMQLMPFGC

- binding result [10]: binds
B1: VVVGAVGVGK (peptide)
peptide: VVVGAVGVGK
notes: Endogenously processed RAS G12V peptide eluted from HLA-peptide complexes

- Stability (half-life (hr.)) (HLA-B08.01 [3]): 0 h
Binder: VQLIMQLMPF (also called VOLIMQLMPF)

- Stability (half-life (hr.)) (HLA-B08.01 [3]): 0 h
Binder: QLIMQLMPF

- Stability (half-life (hr.)) (HLA-A03.01 [4]): 16.7 min
- Stability (half-life (hr.)) (HLA-A01.01 [5]): 52 min
- Affinity (HLA-A11.01): 974 nM
- Affinity (HLA-A03.01 [6]): 95.9 nM
- Affinity (HLA-A01.01 [7]): 13.2 nM
Binder: YMANGSLLNY (also called BTK, C481S peptide)

- Stability (half-life (hr.)) (HLA-B08.01 [3]): 0 h
Binder: IMQLMPFGCL

- Stability (half-life (hr.)) (HLA-B08.01 [11]): 0 h
Binder: MANGSLLNYL

- Stability (half-life (hr.)) (HLA-B08.01 [3]): 0 h
Binder: MQLMPFGCLL

- Stability (half-life (hr.)) (HLA-B08.01 [11]): 0 h
- Affinity (HLA-B08.01 [12]): 960 nM
Binder: SLLNYLREM
